B1: Ktr system potassium uptake protein B (Bacillus subtilis), O32081 (parent)
chain: MTLQKDKVIKWVRFTPPQVLAIGFFLTIIIGAVLLMLPISTTKPLSWIDALFTAASATTVTGLAVVDTGTQFTVFGQTVIMGLIQIGGLGFMTFAVLIVMILGKKIGLKERMLVQEALNQPTIGGVIGLVKVLFLFSISIELIAALILSIRLVPQYGWSSGLFASLFHAISAFNNAGFSLWPDNLMSYVGDPTVNLVITFLFITGGIGFTVLFDVMKNRRFKTFSLHTKLMLTGTLMLNAIAMLTVFILEYSNPGTLGHLHIVDKLWASYFQAVTPRTAGFNSLDFGSMREGTIVFTLLLMFIGAGSASTASGIKLTTFIVILTSVIAYLRGKKETVIFRRSIKYPIIIKALAVSVTSLFIVFLGIFALTITEQAPFLQIVFETFSAFGTVGLTMGLTPELTTAGKCIIIVIMFIGRIGPLTFVFSFAKTEQSNIRYPDGEVFTG
partner: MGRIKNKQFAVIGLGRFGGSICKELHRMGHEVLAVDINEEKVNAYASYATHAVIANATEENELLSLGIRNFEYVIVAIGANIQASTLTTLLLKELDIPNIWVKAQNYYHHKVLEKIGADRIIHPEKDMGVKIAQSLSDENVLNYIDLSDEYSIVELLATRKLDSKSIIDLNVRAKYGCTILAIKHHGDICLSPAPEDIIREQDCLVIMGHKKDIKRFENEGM

Variants of: B1
Details: with ktra_bacsu ktrA

| Variant | effect of a mutation on the interaction |
| --- | --- |
| L108A | decreasing interaction strength |
